{
  "source": "paper PMC3314968",
  "key": {"K48-linked diubiquitin": {"biological_target": "K48-linked diubiquitin (UniProt P0CG48)", "experiment": "ITC", "conditions": "domain or fragment"}, "K63-linked diubiquitin": {"biological_target": "K63-linked diubiquitin (UniProt P0CG48)", "experiment": "ITC", "conditions": "domain or fragment"}},
  "data": [
    {"substance": "human UBAP1 SOUBA domain (389-502), wild-type (from UniProt Q9NZ09 389-502)", "values": [
      {"measurement": "Kd", "setting": "K48-linked diubiquitin", "result": 65, "unit": "µM"},
      {"measurement": "Kd", "setting": "K63-linked diubiquitin", "result": 41, "unit": "µM"}
    ]}
  ]
}
